Assay results taken from paper PMC3320582, “Group A Streptococcus Secreted Esterase Hydrolyzes Platelet-Activating Factor to Impede Neutrophil Recruitment and Facilitate Innate Immune Evasion” (PLoS Pathogens, 2012).

System: [H][C@@](COCCCCCCCCCCCCCCCC)(COP(=O)([O-])OCC[N+](C)(C)C)SC(C)=O
Test: purified protein
Conditions: 20 mM Tris-HCl, pH 8.0, DTNB, room temperature, substrate concentrations corrected for early hydrolysis

SsE (Streptococcus pyogenes serotype M1)
Km: 7.0 µM | kcat: 69.6 s⁻¹
